Assay results published in patent publication US20070059309A1 (Genentech, published 2007).

B1: murine anti-human IFN-α monoclonal antibody 9F3 (antibody, IgG2, V domains shown)
VL: DIVLTQSPASLAVSLGQRATISCRASQSVSTSSYSYMHWYQQKPGQPPKVLISYASNLESGVPARFSGSGSGTDFTLNIHPVEEGDTATYFCQHSWGIPRTFGAGTKLELRR
V domain: EVQLQQSGPELVKPGASVKISCKTSGYTFTEYIIHWVKQGHGRSLEWIGSINPDYDITNYNQRFKGKATLTLDKSSRTAYLELRSLTSEDSAVYYCASWISDFFDYWGQGTTLMVSA
B2: chimeric protein CH8-2 (antibody, V domains shown)
VL: DIVLTQSPASLAVSLGQRATISCRASQSVSTSSYSYMHWYQQKPGQPPKVLISYASNLESGVPARFSGSGSGTDFTLNIHPVEEGDTATYFCQHSWGIPRTFGAGTKLELRR
V domain: EVQLQQSGPELVKPGASVKISCKTSGYTFTEYIIHWVKQGHGRSLEWIGSINPDYDITNYNQRFKGKATLTLDKSSRTAYLELRSLTSEDSAVYYCASWISDFFDYWGQGTTLMVSA

What was measured:
Test in all cases: cell-based or functional assay
[1] = target: recombinant human IFN-α4 (human, UniProt P05014 24-189)
Sequence of recombinant human IFN-α4 (P05014 24-189 limits assumed): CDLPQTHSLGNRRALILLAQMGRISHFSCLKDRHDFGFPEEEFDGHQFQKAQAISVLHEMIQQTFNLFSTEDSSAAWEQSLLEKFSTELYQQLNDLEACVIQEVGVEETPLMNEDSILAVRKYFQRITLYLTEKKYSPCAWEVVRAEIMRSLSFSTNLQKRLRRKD

[2] = target: T1, recombinant human IFN-α5 (human, UniProt P01569 24-189, limits assumed)
T1 sequence (P01569 24-189 limits assumed): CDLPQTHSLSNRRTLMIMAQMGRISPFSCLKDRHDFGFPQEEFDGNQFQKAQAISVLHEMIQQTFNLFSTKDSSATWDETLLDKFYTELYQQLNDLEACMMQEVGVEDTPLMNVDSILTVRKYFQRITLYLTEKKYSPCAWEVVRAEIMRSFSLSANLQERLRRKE

[3] = target: T1, recombinant human IFN-α5; remark: listed apart in the source
[4] = target: recombinant human IFN-α1 (human)
Sequence of recombinant human IFN-α1 (human) (P01562 24-189): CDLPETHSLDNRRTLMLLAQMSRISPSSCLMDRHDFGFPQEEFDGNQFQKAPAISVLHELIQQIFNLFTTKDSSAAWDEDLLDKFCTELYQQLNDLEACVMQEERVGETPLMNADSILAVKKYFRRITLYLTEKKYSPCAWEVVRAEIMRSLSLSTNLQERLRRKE

Binder	EC50 (read off the curve); neutralization of anti-viral activity, EMC virus / A549 cells [1] [µg/mL]	EC50 (read off the curve); neutralization of anti-viral activity, EMC virus / A549 cells [2] [µg/mL]	EC50 (read off the curve); neutralization of anti-viral activity, EMC virus / A549 cells [left panel] [3] [µg/mL]	EC50 (read off the curve); neutralization of anti-viral activity, EMC virus / A549 cells [right panel] [4] [µg/mL]
B1	~1	~1	~0.2	–
B2	–	–	–	~2
